{
  "source": "paper PMC5459593",
  "about": "(2017)",
  "key": {"Notch1(8-12) EGF8-12": {"molecular_target": "T1, Notch1(8-12) EGF8-12 (Rattus norvegicus, UniProt Q07008)", "T1 chain": "LLCLT", "test": "SPR"}, "Notch1(11-12) EGF11-12": {"molecular_target": "T2, Notch1(11-12) EGF11-12 (Rattus norvegicus, UniProt Q07008)", "T2 chain": "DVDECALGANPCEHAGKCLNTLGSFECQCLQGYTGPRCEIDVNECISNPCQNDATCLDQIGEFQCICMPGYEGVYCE", "test": "SPR"}},
  "data": [
    {"binder": "DLL4(N-3) N-EGF3 (protein) SGIFQLRLQEFANERGMLANGRPCEPGCRTFFRICLKHYQATFSEGPCTFGNVSTPVLGTNSFVIRDKNSGSGRNPLQLPFNFTWPGTFSLNIQAWHTPGDDLRPETSPGNSLISQIIIQGSLAVGKNWKSDEQNNTLTRLRYSYRVVCSDNYYGDSCSRLCKKRDDHFGHYECQPDGSLSCLPGWTGKYCDQPICLSGCHEQNGYCSKPDECNCRPGWQGPLCNECIPHNGCRHGTCTIPWQCACDEGWGGLFCDQDLNYCTHHSPCKNGSTCSNSGPRGYTCTCLPGYTGEHCE", "values": [
      {"measurement": "Kd", "setting": "Notch1(8-12) EGF8-12", "result": 9.7, "unit": "µM"},
      {"measurement": "Kd", "setting": "Notch1(11-12) EGF11-12", "result": 12.8, "unit": "µM"}
    ]}
  ]
}
